Tests used:
[1] = target: FcγRIIa receptor (H131 variant) (UniProt P12318); test: cell-based or functional assay
[2] = target: FcγRIIIa receptor (V158 variant) (UniProt P08637); test: cell-based or functional assay
Chain of FcγRIIIa receptor (V158 variant) (P08637 other isoform, or with tags, fused parts or gaps mutant limits assumed): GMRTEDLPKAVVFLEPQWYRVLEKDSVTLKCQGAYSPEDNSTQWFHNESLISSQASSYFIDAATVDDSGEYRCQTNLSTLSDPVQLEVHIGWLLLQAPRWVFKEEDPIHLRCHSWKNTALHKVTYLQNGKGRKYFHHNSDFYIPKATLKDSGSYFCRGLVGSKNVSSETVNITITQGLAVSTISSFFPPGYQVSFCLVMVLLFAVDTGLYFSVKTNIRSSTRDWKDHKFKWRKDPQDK

Chain of FcγRIIa receptor (H131 variant) (P12318 34-317 limits assumed, change not shown): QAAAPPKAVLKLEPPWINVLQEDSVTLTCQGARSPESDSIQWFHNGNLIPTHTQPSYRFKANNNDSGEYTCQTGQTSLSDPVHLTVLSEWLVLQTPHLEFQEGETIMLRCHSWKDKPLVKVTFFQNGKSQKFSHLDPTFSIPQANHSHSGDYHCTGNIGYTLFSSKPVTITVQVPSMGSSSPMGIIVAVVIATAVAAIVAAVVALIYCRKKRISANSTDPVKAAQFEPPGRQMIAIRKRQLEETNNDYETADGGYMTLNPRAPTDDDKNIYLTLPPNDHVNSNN

luminescence, ADCP reporter, 3.048316 ng/mL [1]: 45 | luminescence, ADCP reporter, 9.144947 ng/mL [1]: 52 | luminescence, ADCP reporter, 27.43484 ng/mL [1]: 42 | luminescence, ADCP reporter, 82.30453 ng/mL [1]: 41 | luminescence, ADCP reporter, 246.9136 ng/mL [1]: 54 | luminescence, ADCP reporter, 740.7407 ng/mL [1]: 60 | luminescence, ADCP reporter, 2,222.222 ng/mL [1]: 57 | luminescence, ADCP reporter, 6,666.667 ng/mL [1]: 49 | luminescence, ADCP reporter, 20,000 ng/mL [1]: 83 | luminescence, ADCC reporter, 3.048316 ng/mL [2]: 314 | luminescence, ADCC reporter, 9.144947 ng/mL [2]: 329 | luminescence, ADCC reporter, 27.43484 ng/mL [2]: 340 | luminescence, ADCC reporter, 82.30453 ng/mL [2]: 377 | luminescence, ADCC reporter, 246.9136 ng/mL [2]: 381 | luminescence, ADCC reporter, 740.7407 ng/mL [2]: 379 | luminescence, ADCC reporter, 2,222.222 ng/mL [2]: 373 | luminescence, ADCC reporter, 6,666.667 ng/mL [2]: 431 | luminescence, ADCC reporter, 20,000 ng/mL [2]: 399
Substance: isotype control antibody
